Assay results taken from the supplement of paper PMC10567573.

B1: ADAMTS4 (parent)
chain: HVDPEEPWSPCSARFITDFLDNGY
B2: CDC14A (parent)
chain: LNLAMVYRYCCKLNKKLKSYSLSR

Variants of: B1
Test: protein stability index of a GFP-peptide fusion (GPS, HEK-293T) (PSI 1-6); higher = more stable
Conditions: c terminus: a fixed tail appended
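Note: lentivirally expressed fusions sorted by FACS into six bins by GFP to DsRed ratio, PSI derived from sequencing read proportions per bin multiplied by bin number.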

Protein stability index of substitutions, site by site:
N22: P 2.09 | A 1.8 | H 1.62 | D 1.88 | G 2.07 | K 1.57 | S 1.47 | I 2.52 | M 1.92 | Q 2.09 | E 2.19 | Y 1.78 | F 1.85 | T 1.46 | L 1.71 | R 1.7 | C 2.35 | V 1.94 | W 1.3
D21: Y 1.33
Y24: R 1.96 | F 2.17 | H 1.9 | W 1.64 | K 1.94 | C 1.39 | E 2.01 | S 1.81 | A 2.32 | I 2.05 | P 1.92 | N 2.21 | L 1.84 | G 2.36 | T 2 | M 2.07 | V 1.73 | D 1.75 | Q 2.1
G23: C 2.17 | Q 1.65 | T 2.22 | A 1.74 | M 1.69 | R 1.53 | Y 2.02 | H 2.12 | D 2.24 | F 2 | W 1.82 | N 1.61 | I 2.05 | E 1.96 | V 2.27 | K 2.06 | S 1.71 | L 1.82 | P 2.1

Variants of: B2
Test: as above
Conditions: c terminus: a fixed tail appended

Protein stability index of substitutions, site by site:
C10: K 1.65 | E 1.98 | V 3.25 | P 2.05 | Q 2.8 | R 1.59 | S 2.28 | T 2.32 | N 1.95 | Y 4.25 | H 3.62 | D 2.31 | W 3.64 | A 2.41 | M 2.89 | L 2.67 | I 4.27 | G 2.71 | F 2.71
N14: T 3.41 | G 3.52 | A 3.35 | Q 4.32 | E 4.6 | I 2.38 | D 2.8 | P 4.59 | H 3.21 | R 3.97 | F 2.31 | C 3.38 | Y 3.35 | V 1.78 | M 1.94 | S 2.35 | K 3.38
L3: A 2.74 | V 2.59 | E 2.32 | K 3.48 | N 1.89 | G 4.11 | I 2.02 | S 2.2 | P 3.05 | R 2.17 | C 4 | Y 1.81 | F 3.38 | H 1.8 | Q 2.61 | T 2.79 | D 2.29 | M 2.88
Y7: Q 2.71 | I 3.1 | V 3.72 | E 2.16 | M 1.91 | P 2.23 | C 2.73 | A 1.85 | K 2.13 | H 2.68 | F 3.48 | S 3.42 | N 2.46 | G 2.43 | T 3.96 | L 3.34
Y9: A 2.3 | T 2.54 | W 2.91 | R 2.03 | M 1.81 | G 3.25 | K 3.54 | I 2.02 | H 2.48 | Q 3.9 | V 2.44 | D 2.91 | E 2.45 | C 2.59 | P 1.41 | N 2.03 | S 2.19
K16: F 1.63 | H 3.33 | G 3.28 | C 4.54 | D 2.56 | N 2.32 | E 1.9 | M 2.77 | S 2.33 | Q 2.35 | P 2.42 | Y 2.72 | W 2.81 | T 3.67 | I 1.62 | R 3.33 | L 2.13
K15: L 3.39 | Q 4.63 | N 2.31 | C 4.37 | A 2.87 | H 3.69 | P 2.32 | M 1.07 | F 2.81 | D 2.33 | Y 3.3 | E 3.47 | T 2.62 | I 3.62 | V 3.04
R8: L 3.17 | T 2.03 | P 2.09 | V 3.11 | S 2.98 | E 2.43 | H 4.35 | C 3.52 | K 2.08 | Q 2.26 | F 3.02 | N 1.97 | Y 2.67 | D 3.23 | G 3.71 | I 2.62
L1: R 2.77 | F 2.51 | A 2.44 | Y 2.49 | D 3.11 | M 3.23 | E 3.44 | I 3.18 | H 2.26 | S 3.71 | T 2.3 | K 2.73 | C 3.72
L13: Q 3.27 | E 2.48 | V 4.56 | W 1.96 | H 2 | S 1.8 | T 2.08 | F 3.31 | A 2.92 | N 1.89 | G 2.49 | D 2.11 | I 2.69 | R 3.08 | C 2.79 | K 1.56 | P 1.2 | M 3.6 | Y 2.32
A4: T 2.15 | R 3.08 | S 3.5 | N 3.18 | H 3.55 | D 4.12 | L 2.68 | G 3.33 | P 3.19 | W 1.8 | Q 4.07 | V 2.74 | E 2.43 | K 1.59 | M 3.12 | F 3.74 | Y 2.91 | I 2.37 | C 3.81
M5: Y 3.21 | V 2.54 | A 2.67 | W 3.48 | T 3.46 | G 3.92 | P 3.2 | N 3.77 | H 3.35 | F 2.8 | L 2.57 | E 3 | Q 1.56 | K 3.87 | C 4.65 | D 3.92
K12: D 1.81 | M 2.19 | A 2.1 | V 2.59 | R 2.13 | Q 3.04 | P 2.87 | S 2.58 | W 2.14 | E 1.5 | H 1.73 | Y 2.51 | I 3.53 | L 2.5 | T 2.55 | F 2.18 | G 1.89 | N 2.15
L17: I 2.95 | H 2.21 | G 2.85 | F 2.64 | C 4.4 | A 2.65 | D 2.14 | E 1.69
C11: E 1.62 | L 2.64 | I 3.23 | R 2.64 | Y 2.63 | N 3.24 | A 2.73 | V 2.45 | K 3 | G 4.89 | W 2.15 | P 1.97 | D 2.85 | H 3.15 | S 3.77 | M 2.74
N2: W 3.17 | V 1.82 | E 3.15 | L 2.17 | T 2.24 | P 3.42 | A 3.34 | I 2.14 | Y 2.64 | C 3.28 | M 3.27 | R 2.39 | F 1.04
V6: M 2.72 | P 2.15 | F 5.59 | D 2.05 | R 2.78 | E 1.76 | C 3.05 | N 1.63 | G 1.73 | I 3.28 | A 3.5 | Q 2.85 | H 2.03 | W 3.43 | K 2.39 | S 2.5 | T 2.46 | L 2.01 | Y 2.45
